Reference: paper PMC9482650, “Quantitative fragmentomics allow affinity mapping of interactomes” (Nature Communications, 2022)

T1: PDZD7_3, Q9H5P4
T1 sequence (Q9H5P4 857-944, limits assumed, looked up): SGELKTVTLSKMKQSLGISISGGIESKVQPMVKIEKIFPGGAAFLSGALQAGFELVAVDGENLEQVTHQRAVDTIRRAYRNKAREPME

T2: FRMPD1, Q5SYB0
T2 sequence (Q5SYB0 52-145, limits assumed, looked up): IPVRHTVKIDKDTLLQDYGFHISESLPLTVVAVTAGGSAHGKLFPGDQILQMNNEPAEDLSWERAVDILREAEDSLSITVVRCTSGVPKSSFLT

T3: DVL3, Q92997
T3 sequence (Q92997 244-331, limits assumed, looked up): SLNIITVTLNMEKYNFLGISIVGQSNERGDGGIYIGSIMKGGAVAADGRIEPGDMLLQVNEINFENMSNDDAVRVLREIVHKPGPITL

T4: RAPGEF6, Q8TEU7
T4 sequence (Q8TEU7 525-625, limits assumed, looked up): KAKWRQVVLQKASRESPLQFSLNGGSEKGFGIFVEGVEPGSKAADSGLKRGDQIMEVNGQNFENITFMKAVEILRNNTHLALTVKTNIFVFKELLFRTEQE

T5: PTPN13_1, Q12923
T5 sequence (Q12923 1088-1188, limits assumed, looked up): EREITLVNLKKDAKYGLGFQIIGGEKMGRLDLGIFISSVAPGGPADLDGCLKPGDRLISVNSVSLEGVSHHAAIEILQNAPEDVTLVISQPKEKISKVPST

T6: HTRA4, P83105
T6 sequence (P83105 378-476, limits assumed, looked up): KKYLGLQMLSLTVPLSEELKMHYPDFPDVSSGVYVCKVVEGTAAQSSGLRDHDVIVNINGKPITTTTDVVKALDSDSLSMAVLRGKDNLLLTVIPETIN

T7: TIAM2, Q8IVF5
T7 sequence (Q8IVF5 885-986, limits assumed, looked up): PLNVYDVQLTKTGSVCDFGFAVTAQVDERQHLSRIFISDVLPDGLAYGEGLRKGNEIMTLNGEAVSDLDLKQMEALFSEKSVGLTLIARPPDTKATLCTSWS

T8: APBA3_1, O96018
T8 sequence (O96018 389-490, limits assumed, looked up): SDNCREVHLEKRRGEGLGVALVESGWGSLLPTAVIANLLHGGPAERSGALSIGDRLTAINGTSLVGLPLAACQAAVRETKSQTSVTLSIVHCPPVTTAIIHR

T9: RHPN1, Q8TCX5
T9 sequence (Q8TCX5 508-602, limits assumed, looked up): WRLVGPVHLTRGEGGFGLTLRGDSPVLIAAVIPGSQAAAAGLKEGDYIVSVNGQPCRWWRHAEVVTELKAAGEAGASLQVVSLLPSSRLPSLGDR

T10: SNTG2, Q9NY99
T10 sequence (Q9NY99 68-166, limits assumed, looked up): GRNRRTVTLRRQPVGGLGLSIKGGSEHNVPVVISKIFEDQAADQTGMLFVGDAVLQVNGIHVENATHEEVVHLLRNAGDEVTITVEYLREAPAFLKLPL

T11: SIPA1L2, Q9P2F8
T11 sequence (Q9P2F8 945-1036, limits assumed, looked up): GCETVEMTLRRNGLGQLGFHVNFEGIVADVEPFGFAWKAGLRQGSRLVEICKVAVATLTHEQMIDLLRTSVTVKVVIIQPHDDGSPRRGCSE


Key:
Test in all cases: holdup assay
Set-up in all cases: key: below the threshold = too weak to quantify, mostly under pKd 3.1 to 4
Conditions in all cases: plain residues with an end cap or a label only (N-terminal biotin on a linker: ado-ado)
[1] = molecular target: MAGI2_3, Q86UL8
MAGI2_3, Q86UL8, sequence (Q86UL8 600-682): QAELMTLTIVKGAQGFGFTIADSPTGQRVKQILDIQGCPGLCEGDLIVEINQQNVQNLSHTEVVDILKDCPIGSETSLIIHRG

[2] = molecular target: T1, PDZD7_3, Q9H5P4
[3] = molecular target: NHERF4_4, Q86UT5
NHERF4_4, Q86UT5, sequence (Q86UT5 464-550): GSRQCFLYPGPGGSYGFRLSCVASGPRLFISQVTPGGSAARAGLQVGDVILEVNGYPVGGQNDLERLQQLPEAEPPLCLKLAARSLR

[4] = molecular target: MAGI2_6, Q86UL8
MAGI2_6, Q86UL8, sequence (Q86UL8 1141-1229): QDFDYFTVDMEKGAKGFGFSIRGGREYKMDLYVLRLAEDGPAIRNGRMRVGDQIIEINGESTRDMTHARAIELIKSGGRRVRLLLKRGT

[5] = molecular target: T2, FRMPD1, Q5SYB0
[6] = molecular target: Inadl_8, Q8NI35
Inadl_8, Q8NI35, sequence (Q8NI35 1425-1530): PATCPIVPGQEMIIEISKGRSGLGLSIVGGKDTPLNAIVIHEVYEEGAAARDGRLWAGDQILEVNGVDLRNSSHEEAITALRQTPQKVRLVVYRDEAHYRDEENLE

[7] = molecular target: T3, DVL3, Q92997
[8] = molecular target: ARHGEF12, Q9NZN5-2
ARHGEF12, Q9NZN5-2, sequence (Q9NZN5 other isoform, or with tags, fused parts or gaps): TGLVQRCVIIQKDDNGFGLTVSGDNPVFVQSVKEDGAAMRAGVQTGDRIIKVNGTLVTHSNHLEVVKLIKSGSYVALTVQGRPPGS

[9] = molecular target: T4, RAPGEF6, Q8TEU7
[10] = molecular target: T5, PTPN13_1, Q12923
[11] = molecular target: T6, HTRA4, P83105
[12] = molecular target: T7, TIAM2, Q8IVF5
[13] = molecular target: LNX1_2, Q8TBB1
LNX1_2, Q8TBB1, sequence (Q8TBB1 371-470): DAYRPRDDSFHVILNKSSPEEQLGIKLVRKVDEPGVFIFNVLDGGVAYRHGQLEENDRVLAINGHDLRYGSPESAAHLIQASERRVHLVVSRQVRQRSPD

[14] = molecular target: T8, APBA3_1, O96018
[15] = molecular target: FRMPD2_1, Q68DX3
FRMPD2_1, Q68DX3, sequence (Q68DX3 770-861): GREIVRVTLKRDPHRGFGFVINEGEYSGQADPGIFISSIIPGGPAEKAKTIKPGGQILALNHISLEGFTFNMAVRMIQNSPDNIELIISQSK

[16] = molecular target: FRMPD4, Q14CM0
FRMPD4, Q14CM0, sequence (Q14CM0 67-160): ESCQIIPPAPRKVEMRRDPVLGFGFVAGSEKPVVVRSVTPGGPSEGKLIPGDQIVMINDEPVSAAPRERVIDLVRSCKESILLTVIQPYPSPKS

[17] = molecular target: DLG2_3, Q15700
[18] = molecular target: T9, RHPN1, Q8TCX5
[19] = molecular target: GRASP, Q7Z6J2
GRASP, Q7Z6J2, sequence (Q7Z6J2 96-193): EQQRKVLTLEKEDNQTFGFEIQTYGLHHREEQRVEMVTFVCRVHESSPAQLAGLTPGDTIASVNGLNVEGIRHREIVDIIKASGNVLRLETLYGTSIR

[20] = molecular target: FRMPD2_2, Q68DX3
FRMPD2_2, Q68DX3, sequence (Q68DX3 944-1038): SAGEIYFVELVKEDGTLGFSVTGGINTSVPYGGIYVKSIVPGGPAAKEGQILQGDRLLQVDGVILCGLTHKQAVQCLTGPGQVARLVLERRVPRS

[21] = molecular target: GRIP2_4, Q9C0E4
GRIP2_4, Q9C0E4, sequence (Q9C0E4 446-548): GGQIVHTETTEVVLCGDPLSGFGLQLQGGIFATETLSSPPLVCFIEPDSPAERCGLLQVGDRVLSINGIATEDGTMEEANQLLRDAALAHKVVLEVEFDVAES

[22] = molecular target: T10, SNTG2, Q9NY99
[23] = molecular target: PDZRN4_1, Q6ZMN7
PDZRN4_1, Q6ZMN7, sequence (Q6ZMN7 213-318): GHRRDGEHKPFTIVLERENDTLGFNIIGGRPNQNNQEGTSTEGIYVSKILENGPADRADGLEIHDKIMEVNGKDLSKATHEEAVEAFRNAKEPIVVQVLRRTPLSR

[24] = molecular target: LNX1_1, Q8TBB1
LNX1_1, Q8TBB1, sequence (Q8TBB1 261-371): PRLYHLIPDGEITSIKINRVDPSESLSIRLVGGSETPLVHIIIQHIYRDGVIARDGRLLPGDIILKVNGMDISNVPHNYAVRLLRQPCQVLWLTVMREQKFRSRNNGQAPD

[25] = molecular target: T11, SIPA1L2, Q9P2F8
[26] = molecular target: FRMPD2_3, Q68DX3
FRMPD2_3, Q68DX3, sequence (Q68DX3 1073-1166): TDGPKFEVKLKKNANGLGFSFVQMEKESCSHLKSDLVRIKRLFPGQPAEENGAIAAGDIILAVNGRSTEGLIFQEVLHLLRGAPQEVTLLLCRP

[27] = molecular target: Inadl_6, Q8NI35
Inadl_6, Q8NI35, sequence (Q8NI35 1058-1167): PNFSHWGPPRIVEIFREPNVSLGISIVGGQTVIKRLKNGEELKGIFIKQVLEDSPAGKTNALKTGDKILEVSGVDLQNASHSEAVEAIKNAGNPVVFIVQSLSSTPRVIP

pKd [1]	pKd [2]	pKd [3]	pKd [4]	pKd [5]	pKd [6]	pKd [7]	pKd [8]	pKd [9]	pKd [10]	pKd [11]	pKd [12]	pKd [13]	pKd [14]	pKd [15]	pKd [16]	pKd [17]	pKd [18]	pKd [19]	pKd [20]	Binder	other results
3.77	5.04	below the threshold	3.61	below the threshold	4.36	below the threshold	4.13	below the threshold	below the threshold	3.87	3.86	below the threshold	below the threshold	below the threshold	3.48	3.91	4.32	3.64	3.8	PTPDLPQTRV [KLHDC7A, Q5VTJ3]	pKd [21]: below the threshold; pKd [22]: 5.24; pKd [23]: 3.59; pKd [24]: 3.89; pKd [25]: below the threshold; pKd [26]: below the threshold; pKd [27]: below the threshold
3.53	4.47	below the threshold	4.3	below the threshold	3.81	below the threshold	3.82	below the threshold	below the threshold	3.87	below the threshold	below the threshold	below the threshold	below the threshold	below the threshold	4.54	3.76	below the threshold	3.5	ARGPPRESEV [FAM110D, Q8TAY7]	pKd [21]: below the threshold; pKd [22]: 4.4; pKd [23]: 4.4; pKd [24]: 3.78; pKd [25]: below the threshold; pKd [26]: below the threshold; pKd [27]: below the threshold

Continued, binder first:

Binder	pKd [1]	pKd [2]	pKd [3]	pKd [4]	pKd [5]	pKd [6]	pKd [7]	pKd [8]	pKd [9]	pKd [10]	pKd [11]	pKd [12]	pKd [13]	pKd [14]	pKd [15]	pKd [16]	pKd [17]	pKd [18]	pKd [19]	pKd [20]	other results
QRPYRRGSEI [KCNJ18, B7U540]	below the threshold	below the threshold	below the threshold	below the threshold	below the threshold	3.69	below the threshold	3.74	below the threshold	below the threshold	below the threshold	4.11	below the threshold	below the threshold	below the threshold	below the threshold	3.91	3.75	below the threshold	3.73	pKd [21]: below the threshold; pKd [22]: below the threshold; pKd [23]: below the threshold; pKd [24]: 3.83; pKd [25]: below the threshold; pKd [26]: below the threshold; pKd [27]: below the threshold
NISYRRESAI [KCNJ4, P48050]	below the threshold	4.05	below the threshold	below the threshold	below the threshold	below the threshold	below the threshold	below the threshold	below the threshold	below the threshold	below the threshold	4.07	below the threshold	below the threshold	below the threshold	below the threshold	4.36	below the threshold	below the threshold	below the threshold	pKd [21]: below the threshold; pKd [22]: below the threshold; pKd [23]: 4.25; pKd [24]: below the threshold; pKd [25]: below the threshold; pKd [26]: below the threshold; pKd [27]: below the threshold
ARSAAASNYV [CLDN4, O14493]	below the threshold	below the threshold	3.92	below the threshold	below the threshold	4.06	3.66	3.73	below the threshold	below the threshold	3.98	below the threshold	below the threshold	below the threshold	below the threshold	below the threshold	below the threshold	below the threshold	below the threshold	below the threshold	pKd [21]: below the threshold; pKd [22]: below the threshold; pKd [23]: 3.66; pKd [24]: 3.57; pKd [25]: 3.53; pKd [26]: below the threshold; pKd [27]: below the threshold
